Results on 167 variants are retold here after the RNAGym collection of RNA variant scans (doi:10.7554/elife.90254).

The chains are these.
B1: LINE1-full (parent)
chain: UACGUAGGUGGUUUUCCCCUGAUAGUGCUAAGGGGGCCUGGAAGUUUGGACUGGGCAGAGCUCAACACAGCGUGGCAAAGUGGCUGUGGCUAGACUGCCUCUCUGGAUUCCUCGUCACUCAGCAGGGCAUCUCUGAGAGAAAUGCC

In this data set the parent is B1. As to the kind of experiment: self-cleavage, relative activity (ratio to wild type); higher = more cleavage; in vitro, sequencing; the parent is a self-cleaving ribozyme.
A30G G88C: the self-cleavage is 0.44.
Then A31G A69U, with 0.12.
In the case of A31G A138G, the self-cleavage was 0.86.
As to A30G G55U, the self-cleavage turned out to be 0.79.
For the variant A31G A78G, the self-cleavage was found to be 0.96.
Then A30G U73A, with 1.19.
The figure for A30G U73G is 0.81.
Then A30U U100A, with 0.9.
For the variant A30U A77G, the self-cleavage is 1.25.
Then A30C A57G, with 0.52; and A30C A121G, with 2.42; and A31C U104A, with 2.67.
A30U A65G: the self-cleavage worked out at 0.06.
Then A30U A65C, with 0.1.
The figure for A30U G35A is 1.07; for A30G G97A it is 0.42; for A30G U119C it is 1.45.
The figure for A30G U119A is 1.01.
A30G A57G: the self-cleavage was found to be 1.39.
The figure for A30U C101U is 1.35; for A30U A50G it is 2.04.
As for A30G U91C, the self-cleavage came to 0.65.
Consider A30U U132A, for which the self-cleavage is 1.22.
Then A30U U132C, with 1.07; and A30U A31G, with 1.23; and A30U A31U, with 1.3.
Then A30G C103A, with 0.85; and A30G A136G, with 1.23; and A30C G35A, with 1.51.
The figure for A30U G144A is 0.75.
For A31C A78G, the self-cleavage is 1.1.
The figure for A31C A142G is 0.53; for A30G A107U it is 1.71; for A30G A107G it is 1.2.
The figure for A30U A69U is 0.1; for A30U U46C it is 1.12; for A30U U46G it is 1.14.
Then A31G A65G, with 0; and A30G G70U, with 0.11.
As to A30G U143C, the self-cleavage came out at 1.06.
On to A30G U143A, for which the self-cleavage turned out to be 0.93.
The figure for A30G U132G is 1.93; for A30G U112A it is 1.1.
Then A30G U112C, with 0.96; and A30G G74A, with 0.56; and A31G A77U, with 0.86.
As for A30U U108C, the self-cleavage amounted to 0.41.
The figure for A30G A64U is 0.65; for A30G A64C it is 0.31; for A30U A136G it is 1.4.
Take A30U U130C: the self-cleavage worked out at 1.05.
As to A30G C110U, the self-cleavage worked out at 1.25.
The figure for A31G C145G is 1.63; for A30G A124G it is 0.91; for A30C U112C it is 1.33.
The figure for A30G G105C is 0.25; for A31C U45G it is 0.
Then A31G G35C, with 1.15; and A30G U45A, with 1.53; and A30G C99A, with 0.61.
On to A30G A140G, for which the self-cleavage was found to be 0.99.
Turning to A30U A117G, the self-cleavage was 2.32.
The figure for A30U U87C is 0.23; for A30G G126U it is 0.96.
For the variant A30C A141G, the self-cleavage is 1.38.
Then A30U U62C, with 0.07.
The figure for A30G C145G is 0.47; for A30G U109C it is 1.71.
Then A30G U109A, with 1.38; and A30G U62A, with 0.04.
As to A30G U62C, the self-cleavage stood at 0.13.
As to A31G C110U, the self-cleavage is 0.51.
In the case of A31G A117U, the self-cleavage came to 1.
The figure for A31G A117G is 1.84; for A30U C56A it is 0.09.
A30G A129C: the self-cleavage came to 0.
The figure for A30G A129G is 0.72; for A30U G32A it is 0.89; for A30U A92G it is 0.11.
Regarding A30G A42G, the self-cleavage turned out to be 0.9.
Then A30G A42C, with 0.59; and A30G U96A, with 0.21.
On to A30G U96C, for which the self-cleavage stood at 0.45.
For A30U A141G, the self-cleavage amounted to 0.87.
On to A31C U39C, for which the self-cleavage was 1.19.
As to A30C U87C, the self-cleavage amounted to 0.64.
Then A30U A57U, with 0.13; and A30C A140G, with 1; and A30U G82A, with 1.57.
Then A30G U108C, with 0.5; and A30G C63U, with 0.51; and A30G C63A, with 0.3.
Regarding A31C U134C, the self-cleavage was determined as 1.
The figure for A31G C123U is 1.02; for A30G A59G it is 0.11; for A31G A79G it is 1.23.
For the variant A31G A124U, the self-cleavage is 1.3.
With A31G A67G, the self-cleavage is 0.5.
Then A30G A138G, with 0.64; and U29G U134A, with 1.41.
In the case of A30U U143A, the self-cleavage was determined as 0.77.
In the case of A30G U115A, the self-cleavage is 1.17.
Regarding A30U A107G, the self-cleavage came to 1.28.
A30G A43U: the self-cleavage was 1.5.
Regarding A30C A69G, the self-cleavage is 0.
As to A30C G41U, the self-cleavage came to 1.52.
As to A31C U100C, the self-cleavage was found to be 0.92.
Regarding A31C C71A, the self-cleavage was found to be 0.19.
The figure for A30G U102C is 1.15.
Then A30C C113U, with 1.32; and A30G A77U, with 0.71; and A30G C146U, with 0.92.
Consider A31G A92U, for which the self-cleavage worked out at 0.91.
For the variant A30U G58A, the self-cleavage came to 0.18.
In the case of A30G U104A, the self-cleavage turned out to be 0.61.
The figure for A30U A79C is 1.19; for A30G A65G it is 0.07.
The figure for A30U A94G is 0.55.
Then A30U A124C, with 1.05.
A30U U91C: the self-cleavage was found to be 0.56.
Regarding A30G A79U, the self-cleavage is 0.5.
The figure for A30G A79G is 1.19.
The figure for A30G U87A is 0.16.
Consider A30U U45G, for which the self-cleavage was found to be 0.74.
Regarding A30G C120U, the self-cleavage was 1.53.
Then A30C U96C, with 0.39; and A30U G48U, with 0.71; and A31G A142G, with 1.17.
Then A30G A92G, with 0; and A30C U46C, with 1.48.
As for A31G A141G, the self-cleavage came out at 1.1.
For A30G A50G, the self-cleavage was found to be 0.64.
In the case of A30G A50U, the self-cleavage is 0.89.
Then A31C, with 1.43.
The figure for A31G is 1.11; for A30G A117G it is 0.91; for A30G A141G it is 1.26.
On to A30G U85G, for which the self-cleavage stood at 0.17.
Then A30G U85A, with 0.32; and A31C U85C, with 0.54.
The figure for A30U U134C is 1.22; for A30G C38U it is 1.2.
Regarding A30G U130A, the self-cleavage is 1.15.
The figure for A30G G83C is 0.66.
With A30U G125U, the self-cleavage was 1.17.
On to A31G C113U, for which the self-cleavage was found to be 1.03.
Regarding A30U U47A, the self-cleavage came to 1.15.
The figure for A30U C90G is 0.09.
The figure for A30G C123A is 1.
For A30U U104C, the self-cleavage came to 1.31.
Take A30U U104A: the self-cleavage is 1.93.
Then A31G A43G, with 0.98; and A30U A42G, with 0.99; and A31G A121G, with 1.24.
The figure for A31G A64U is 0.48; for A31G A59U it is 0.42.
On to A31G A59C, for which the self-cleavage worked out at 1.53.
For the variant A31G A59G, the self-cleavage amounted to 0.16.
For A31G C98A, the self-cleavage is 0.
Then A30U A43U, with 0.58; and A30U A43C, with 1.57.
Then A31G A42G, with 0.96.
A30U U112C: the self-cleavage came to 1.08.
The figure for A30G G44C is 0.8.
As to A31G A129U, the self-cleavage was found to be 0.84.
On to A30C A107G, for which the self-cleavage amounted to 2.06.
The figure for A30G A69U is 0.19.
